{"source": "patent US20200407704", "about": "“FUSION PROTEINS AND METHODS FOR SITE-DIRECTED GENOME EDITING” (The Regents of the University of California, published 2020)", "key": {"[1]": {"tested_on": "hADAR2d (ADAR2 deaminase domain, hADAR2-D WT) (Homo sapiens)", "conditions": "DNA strand of hybrid, 250 nM, 60 min"}, "[2]": {"tested_on": "HBD-ADAR2 deaminase fusion (RNase H1 hybrid binding domain) (Homo sapiens)", "conditions": "DNA strand of hybrid, 250 nM, 60 min"}, "hADAR1d E1008Q": {"target": "T1, hADAR1d E1008Q (Homo sapiens, UniProt P55265 SEQ:833-1226)", "T1 chain": "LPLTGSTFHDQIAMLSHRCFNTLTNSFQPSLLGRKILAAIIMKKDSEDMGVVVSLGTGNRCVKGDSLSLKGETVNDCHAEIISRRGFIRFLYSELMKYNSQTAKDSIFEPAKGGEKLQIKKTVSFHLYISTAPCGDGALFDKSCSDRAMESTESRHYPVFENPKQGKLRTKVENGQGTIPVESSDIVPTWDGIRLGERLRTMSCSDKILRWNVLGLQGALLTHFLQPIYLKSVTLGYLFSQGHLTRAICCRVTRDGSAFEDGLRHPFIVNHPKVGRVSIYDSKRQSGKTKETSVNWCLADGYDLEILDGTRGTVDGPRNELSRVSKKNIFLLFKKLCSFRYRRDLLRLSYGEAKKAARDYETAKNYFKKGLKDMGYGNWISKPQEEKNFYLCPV", "assay": "500 nM, 2 h", "conditions": "dA-C mismatch", "procedure": "M13 genomic ssDNA (New England Biolabs) was hybridized with the corresponding guide RNAs. The guide RNA to genomic DNA molar ratio was 20:1 for each hybridization. Deamination reactions were carried out as previously described (21) with the following modifications. The final reaction volume was 10 μL. hADAR1d E1008Q was used for the reaction and the final enzyme concentration was 500 nM. The final RNA concentration was 2.8 nM. The final reaction solution contained 13 mM Tris-HCl, pH 7.2, 3.6% glycerol, 1.2 mM EDTA, 0.002% NP-40, 40.5 mM potassium glutamate, 12.5 mM KCl, 6 mM NaCl, 0.6 mM DTT, 160 units/mL RNasin, and 1 μg/mL yeast tRNA. Reactions were quenched by adding 190 μL 95° C. nuclease-free water followed by incubation at 95° C. for 5 minutes. The target regions of the reaction products were PCR amplified with primers using GoTaq® DNA Polymerase (Promega). PCR products were purified by agarose gel, extracted using a QIAquick Gel Extraction Kit (Qiagen), and sequenced with the forward PCR primers. The sequencing peak heights were measured with Chromas for calculating the editing level. Each experiment was carried out in triplicate. The editing level for the corresponding zero time point was subtracted from each data point as background subtraction. Statistical significance between groups was determined by t tests using QuickCalcs (GraphPad Software)."}}}
{"molecule": "DNA/RNA hybrid duplex used with HBD fusion", "values": [{"measurement": "activity", "setting": "[1]", "result": 35, "unit": "% edited"}, {"measurement": "activity", "setting": "[2]", "result": 90, "unit": "% edited"}]}
{"molecule": "M13 TAG site + guide RNA (DNA:RNA) DNA: CCTCGCGTTCTTAGAATACCGGAT RNA: AUCCGGUAUUCCAAGAACGCGAGG", "values": [{"measurement": "activity", "setting": "hADAR1d E1008Q", "result": 94, "unit": "% edited"}]}
{"molecule": "M13 GAA site + guide RNA (DNA:RNA) DNA: AGGCCAGACGCGAATTATTTTTGA RNA: UCAAAAAUAAUCCGCGUCUGGCCU", "values": [{"measurement": "activity", "setting": "hADAR1d E1008Q", "result": 27, "unit": "% edited"}]}
{"molecule": "M13 AAG site + guide RNA (DNA:RNA) DNA: CCAAATGGCTCAAGTCGGTGACGG RNA: CCGUCACCGACCUGAGCCAUUUGG", "values": [{"measurement": "activity", "setting": "hADAR1d E1008Q", "result": 81, "unit": "% edited"}]}
{"molecule": "M13 CAC site + guide RNA (DNA:RNA) DNA: CTTTCTATTCTCACTCCGCTGAAA RNA: UUUCAGCGGAGCGAGAAUAGAAAG", "values": [{"measurement": "activity", "setting": "hADAR1d E1008Q", "result": 53, "unit": "% edited"}]}
